The labels stand for the following.
B1: glmS ribozyme (parent)
chain: AUAAAAGCGCCAGAACUACAGAAAUGUAGUUGACGAGGAGGAGGUUUAUCGAAUUUUCGGCGGAUGCCUCCAAA

Conditions in all cases: with glucosamine-6-phosphate
Variants of B1 are the subject of data set [1]. Put plainly: self-cleavage kobs at 40 uM GlcN6P; higher = faster cleavage; RNA array. Put shortly: (§1)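 kcat and KM were obtained from weighted Michaelis–Menten fits across concentrations of kobs values. Those came from one- or two-exponential decay fits to per-tile medians normalised to baseline and to non-cleaving reference variants. The variants were barcoded ribozymes transcribed in situ by E. coli RNA polymerase on sequenced MiSeq chips and tracked through a hybridised Cy3 probe at 37 °C, with 40 μM to 10 mM glucosamine-6-phosphate in HEPES/KCl/Mg(OAc)2 buffer flowed in.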

Variants of B1 are the subject of data set [2]. Kind of data set: self-cleavage kobs at 160 uM GlcN6P; higher = faster cleavage; RNA array. An outline of the steps: as §1
In data set [3] the parent is B1. Kind of data set: self-cleavage kobs at 2500 uM GlcN6P; higher = faster cleavage; RNA array. An outline of the steps: as §1
Data set [4] covers variants of B1. Put plainly: self-cleavage kobs at 640 uM GlcN6P; higher = faster cleavage; RNA array. Put shortly:
as §1

The variants in data set [5] derive from B1. Put plainly: self-cleavage kobs at 10000 uM GlcN6P; higher = faster cleavage; RNA array. Put shortly:
as §1

± gives the standard error. Fewer inactive variants are shown than the library holds.

As to C10G G29U U31C A36U C68A C71U, in the data set with glucosamine-6-phosphate [1], the “self-cleavage kobs at 40 uM GlcN6P” value is below 1e-05 s⁻¹.

Turning to G9C A42U, the “self-cleavage kobs at 40 uM GlcN6P” value with glucosamine-6-phosphate [1] was below 1e-05 s⁻¹. Moreover, the “self-cleavage kobs at 160 uM GlcN6P” value in the data set with glucosamine-6-phosphate [2] is below 1e-05 s⁻¹. Moreover, the “self-cleavage kobs at 2500 uM GlcN6P” value in the data set with glucosamine-6-phosphate [3] was below 1e-05 s⁻¹.

A14U A15G A33U A48U C50U G60C: the “self-cleavage kobs at 40 uM GlcN6P” value with glucosamine-6-phosphate [1] is below 1e-05 s⁻¹.

For G40A G63C, in the data set with glucosamine-6-phosphate [1], the “self-cleavage kobs at 40 uM GlcN6P” value is below 1e-05 s⁻¹. The “self-cleavage kobs at 640 uM GlcN6P” value with glucosamine-6-phosphate [4] is below 1e-05 s⁻¹.

Regarding C16A G62C, the “self-cleavage kobs at 40 uM GlcN6P” value with glucosamine-6-phosphate [1] was below 1e-05 s⁻¹. In addition, the “self-cleavage kobs at 160 uM GlcN6P” value with glucosamine-6-phosphate [2] was below 1e-05 s⁻¹. Besides, the “self-cleavage kobs at 640 uM GlcN6P” value in the data set with glucosamine-6-phosphate [4] is below 1e-05 s⁻¹. In addition, the “self-cleavage kobs at 2500 uM GlcN6P” value in the data set with glucosamine-6-phosphate [3] is below 1e-05 s⁻¹. For the same variant, the “self-cleavage kobs at 10000 uM GlcN6P” value with glucosamine-6-phosphate [5] is below 1e-05 s⁻¹.

For the variant A6C C8U A15G, in the data set with glucosamine-6-phosphate [1], the “self-cleavage kobs at 40 uM GlcN6P” value was below 1e-05 s⁻¹. In the data set with glucosamine-6-phosphate [5], the “self-cleavage kobs at 10000 uM GlcN6P” value is below 1e-05 s⁻¹.

For U55A G63U, the “self-cleavage kobs at 40 uM GlcN6P” value in the data set with glucosamine-6-phosphate [1] is below 1e-05 s⁻¹. Also, in the data set with glucosamine-6-phosphate [4], the “self-cleavage kobs at 640 uM GlcN6P” value was below 1e-05 s⁻¹. For the same variant, in the data set with glucosamine-6-phosphate [5], the “self-cleavage kobs at 10000 uM GlcN6P” value was below 1e-05 s⁻¹.

Take U49C G63C: in the data set with glucosamine-6-phosphate [1], the “self-cleavage kobs at 40 uM GlcN6P” value was below 1e-05 s⁻¹. In addition, the “self-cleavage kobs at 640 uM GlcN6P” value in the data set with glucosamine-6-phosphate [4] is below 1e-05 s⁻¹.

With G37A A42U C70A, the “self-cleavage kobs at 40 uM GlcN6P” value with glucosamine-6-phosphate [1] is below 1e-05 s⁻¹.

Regarding C50G C67A C71A, the “self-cleavage kobs at 40 uM GlcN6P” value with glucosamine-6-phosphate [1] came out at 5.33e-05 ± 1.4e-05 s⁻¹. In addition, the “self-cleavage kobs at 160 uM GlcN6P” value in the data set with glucosamine-6-phosphate [2] was 0.000226 ± 3.6e-05 s⁻¹. For the same variant, the “self-cleavage kobs at 640 uM GlcN6P” value in the data set with glucosamine-6-phosphate [4] was 0.0002 ± 3.8e-05 s⁻¹. The “self-cleavage kobs at 2500 uM GlcN6P” value with glucosamine-6-phosphate [3] stood at 8.26e-05 ± 1.6e-05 s⁻¹. The “self-cleavage kobs at 10000 uM GlcN6P” value with glucosamine-6-phosphate [5] worked out at 6e-05 ± 1.6e-05 s⁻¹.

As for A6G A42U C58U, the “self-cleavage kobs at 40 uM GlcN6P” value with glucosamine-6-phosphate [1] is below 1e-05 s⁻¹.

On to A6G A36C G63A, for which the “self-cleavage kobs at 40 uM GlcN6P” value with glucosamine-6-phosphate [1] was below 1e-05 s⁻¹. Besides, the “self-cleavage kobs at 10000 uM GlcN6P” value with glucosamine-6-phosphate [5] was below 1e-05 s⁻¹.

With A42U G44U, the “self-cleavage kobs at 40 uM GlcN6P” value with glucosamine-6-phosphate [1] was below 1e-05 s⁻¹. The “self-cleavage kobs at 160 uM GlcN6P” value in the data set with glucosamine-6-phosphate [2] is below 1e-05 s⁻¹. Besides, the “self-cleavage kobs at 640 uM GlcN6P” value with glucosamine-6-phosphate [4] was below 1e-05 s⁻¹. Besides, in the data set with glucosamine-6-phosphate [3], the “self-cleavage kobs at 2500 uM GlcN6P” value is below 1e-05 s⁻¹.

Take C8A C50A: in the data set with glucosamine-6-phosphate [1], the “self-cleavage kobs at 40 uM GlcN6P” value was below 1e-05 s⁻¹. The “self-cleavage kobs at 160 uM GlcN6P” value with glucosamine-6-phosphate [2] is below 1e-05 s⁻¹. Moreover, the “self-cleavage kobs at 640 uM GlcN6P” value in the data set with glucosamine-6-phosphate [4] is below 1e-05 s⁻¹. Also, in the data set with glucosamine-6-phosphate [3], the “self-cleavage kobs at 2500 uM GlcN6P” value is below 1e-05 s⁻¹. In the data set with glucosamine-6-phosphate [5], the “self-cleavage kobs at 10000 uM GlcN6P” value was below 1e-05 s⁻¹.

For the variant G7U A36U U54A G62A, the “self-cleavage kobs at 40 uM GlcN6P” value with glucosamine-6-phosphate [1] is below 1e-05 s⁻¹.

Turning to A12C G38A, in the data set with glucosamine-6-phosphate [1], the “self-cleavage kobs at 40 uM GlcN6P” value is below 1e-05 s⁻¹. Besides, the “self-cleavage kobs at 160 uM GlcN6P” value in the data set with glucosamine-6-phosphate [2] was below 1e-05 s⁻¹.

Take A12U U56A: the “self-cleavage kobs at 40 uM GlcN6P” value with glucosamine-6-phosphate [1] amounted to 0.00122 ± 0.00016 s⁻¹. The “self-cleavage kobs at 160 uM GlcN6P” value with glucosamine-6-phosphate [2] came out at 0.0024 ± 0.00059 s⁻¹. In addition, the “self-cleavage kobs at 640 uM GlcN6P” value in the data set with glucosamine-6-phosphate [4] is 0.0157 ± 0.0027 s⁻¹. Moreover, in the data set with glucosamine-6-phosphate [3], the “self-cleavage kobs at 2500 uM GlcN6P” value came to 0.04 ± 0.012 s⁻¹. Moreover, the “self-cleavage kobs at 10000 uM GlcN6P” value with glucosamine-6-phosphate [5] was 0.0626 ± 0.016 s⁻¹.

Turning to C16U G51A, in the data set with glucosamine-6-phosphate [1], the “self-cleavage kobs at 40 uM GlcN6P” value is below 1e-05 s⁻¹. In addition, the “self-cleavage kobs at 160 uM GlcN6P” value in the data set with glucosamine-6-phosphate [2] was below 1e-05 s⁻¹.

A6C C10U A33G G41U U47G U55C: the “self-cleavage kobs at 40 uM GlcN6P” value with glucosamine-6-phosphate [1] was below 1e-05 s⁻¹. The “self-cleavage kobs at 640 uM GlcN6P” value in the data set with glucosamine-6-phosphate [4] is below 1e-05 s⁻¹. In the data set with glucosamine-6-phosphate [5], the “self-cleavage kobs at 10000 uM GlcN6P” value is below 1e-05 s⁻¹.

Turning to C34G G37U A39C A53U, the “self-cleavage kobs at 40 uM GlcN6P” value with glucosamine-6-phosphate [1] was below 1e-05 s⁻¹.

Turning to U30A G59U, the “self-cleavage kobs at 40 uM GlcN6P” value with glucosamine-6-phosphate [1] was below 1e-05 s⁻¹.

Take A39G C71G: in the data set with glucosamine-6-phosphate [1], the “self-cleavage kobs at 40 uM GlcN6P” value was found to be 0.000215 ± 2.7e-05 s⁻¹. In addition, the “self-cleavage kobs at 160 uM GlcN6P” value with glucosamine-6-phosphate [2] turned out to be 0.000373 ± 6.9e-05 s⁻¹. Besides, the “self-cleavage kobs at 640 uM GlcN6P” value with glucosamine-6-phosphate [4] came to 0.000657 ± 8.3e-05 s⁻¹. Moreover, in the data set with glucosamine-6-phosphate [3], the “self-cleavage kobs at 2500 uM GlcN6P” value was 0.00189 ± 0.00037 s⁻¹. Moreover, the “self-cleavage kobs at 10000 uM GlcN6P” value in the data set with glucosamine-6-phosphate [5] is 0.00538 ± 0.0012 s⁻¹.

For the variant A15G G32C G41A C70A, the “self-cleavage kobs at 40 uM GlcN6P” value with glucosamine-6-phosphate [1] is below 1e-05 s⁻¹.

For the variant A12C G32A A48G, the “self-cleavage kobs at 40 uM GlcN6P” value in the data set with glucosamine-6-phosphate [1] was below 1e-05 s⁻¹.

Regarding C8U A33C G44A C50G, the “self-cleavage kobs at 40 uM GlcN6P” value in the data set with glucosamine-6-phosphate [1] is below 1e-05 s⁻¹. In addition, the “self-cleavage kobs at 640 uM GlcN6P” value with glucosamine-6-phosphate [4] is below 1e-05 s⁻¹. For the same variant, the “self-cleavage kobs at 2500 uM GlcN6P” value in the data set with glucosamine-6-phosphate [3] is below 1e-05 s⁻¹.

Take C34G A42C C71U: the “self-cleavage kobs at 40 uM GlcN6P” value with glucosamine-6-phosphate [1] is below 1e-05 s⁻¹. The “self-cleavage kobs at 2500 uM GlcN6P” value with glucosamine-6-phosphate [3] was below 1e-05 s⁻¹.
